The text below walks through data of patent US20240269235A1 (Gilead, published 2024).

For experiment [1], the target named is T1, trimeric murine IL-2 receptor (IL-2Rα, IL-2Rβ, and IL-2Rγ) on CTLL-2 cells (murine, UniProt P01590 22-268; P16297 27-539; P34902 23-369).
T1 sequence (looked up) 1: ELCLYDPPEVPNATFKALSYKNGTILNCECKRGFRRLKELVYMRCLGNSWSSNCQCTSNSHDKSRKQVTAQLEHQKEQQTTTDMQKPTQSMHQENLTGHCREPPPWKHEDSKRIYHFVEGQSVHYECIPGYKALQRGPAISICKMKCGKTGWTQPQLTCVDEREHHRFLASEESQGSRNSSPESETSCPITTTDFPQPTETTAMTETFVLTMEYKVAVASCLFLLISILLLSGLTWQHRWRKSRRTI
T1 sequence (looked up) 2: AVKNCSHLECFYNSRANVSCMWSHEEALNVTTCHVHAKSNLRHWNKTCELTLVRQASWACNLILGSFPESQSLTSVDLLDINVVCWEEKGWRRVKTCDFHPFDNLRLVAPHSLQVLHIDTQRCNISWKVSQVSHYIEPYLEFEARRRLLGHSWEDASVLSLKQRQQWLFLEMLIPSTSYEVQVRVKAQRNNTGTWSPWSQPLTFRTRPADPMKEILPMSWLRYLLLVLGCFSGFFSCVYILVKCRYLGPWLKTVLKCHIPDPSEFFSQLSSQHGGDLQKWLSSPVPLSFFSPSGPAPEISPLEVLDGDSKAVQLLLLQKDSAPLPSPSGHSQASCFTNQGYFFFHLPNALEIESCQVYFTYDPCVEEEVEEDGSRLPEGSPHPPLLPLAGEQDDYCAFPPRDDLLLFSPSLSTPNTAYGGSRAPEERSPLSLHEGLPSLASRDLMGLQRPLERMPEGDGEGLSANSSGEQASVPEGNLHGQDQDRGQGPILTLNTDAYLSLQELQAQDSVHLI
T1 sequence (looked up) 3: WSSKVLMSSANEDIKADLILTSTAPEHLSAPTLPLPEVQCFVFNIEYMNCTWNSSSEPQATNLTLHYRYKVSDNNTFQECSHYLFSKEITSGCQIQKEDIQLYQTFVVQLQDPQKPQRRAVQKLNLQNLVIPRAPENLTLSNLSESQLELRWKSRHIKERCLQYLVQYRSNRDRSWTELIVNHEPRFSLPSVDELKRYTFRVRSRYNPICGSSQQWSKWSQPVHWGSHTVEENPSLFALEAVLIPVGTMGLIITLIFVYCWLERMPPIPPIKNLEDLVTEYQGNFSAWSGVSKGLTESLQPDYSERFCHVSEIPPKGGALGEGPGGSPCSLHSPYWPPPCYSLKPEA
As to the kind of experiment: cell-based or functional assay.

For experiment [2], the target named is T2, IL-2Rα (recombinant IL-2 receptor α, R&D Systems Cat #: 223-2A/CF), biotinylated (human, UniProt P01589 22-213, limits assumed, biotinylated using sulfo-NHS-LC-LC-Biotin).
T2 construct: Bought reagent; also used here as the IL-2Rα partner of the in-silico analysis of PDB 2B5I (another construct); also called IL-2RA; CD25
T2 sequence (looked up): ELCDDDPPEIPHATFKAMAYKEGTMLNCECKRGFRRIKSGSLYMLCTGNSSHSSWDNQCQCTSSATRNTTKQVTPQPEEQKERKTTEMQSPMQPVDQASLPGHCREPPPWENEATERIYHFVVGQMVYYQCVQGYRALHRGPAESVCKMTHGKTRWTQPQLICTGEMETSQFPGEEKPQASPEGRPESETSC
The experiment is described as follows: SPR (Biacore), CM4 chip, biotinylated receptor on neutravidin. The procedure:
(§1) Fc-IL-2 variant binding data was collected on a Biacore platform using a CM4 chip. Neutravidin was immobilized using standard amine coupling methods and used to capture biotinylated receptors. The source, preparation and immobilization of biotinylated IL-2Rα and IL-2Rβγ heterodimer was as described in Example 4. Proleukin was used as a comparator. Fc-IL-2 variants and Proleukin were injected at various concentrations over these surfaces. Kinetic data obtained from these injections was used to extract kₒₙ and koff to calculate KD (KD=Koff/kₒₙ).

The target in experiment [3] is T3, IL-2Rβγ heterodimer, custom biotinylated Fc fusion protein (human IL-2Rβ 27-240-Fc-FLAG / human IL-2Rγ … (human, site-specific biotinylation at the AviTag)).
T3 construct: Extracellular regions fused to IgG1 knob-in-hole Fc subunits with tags; also called IL-2 receptor βγ heterodimer; Fc-IL-2Rβγ
The experiment is described as above. The procedure: as §1

B1: Fc-IL-2v heterodimer 96.46 (hIL-2v_Δ1-5_Y45G_E61A_C125S) (Fc fusion)
chain 1: ESKYGPPCPPCPAPEAAGGPSVFLFPPKPKDTLMISRTPEVTCVVVDVSQEDPEVQFNWYVDGVEVHNAKTKPREEQFNSTYRVVSVLTVLHQDWLNGKEYKCKVSNKGLPSSIEKTISKAKGQPREPQVYTLPPSQEEMTKNQVSLWCLVKGFYPSDIAVEWESNGQPENNYKTTPPVLDSDGSFFLYSRLTVDKSRWQEGNVFSCSVMHEALHNHYTQKSLSLSLGGGGGSGGGGSGGGGSGGGGSSTKKTQLQLEHLLLDLQMILNGINNYKNPKLTRMLTFKFGMPKKATELKHLQCLEAELKPLEEVLNLAQSKNFHLRPRDLISNINVIVLELKGSETTFMCEYADETATIVEFLNRWITFSQSIISTLT
chain 2: ESKYGPPCPPCPAPEAAGGPSVFLFPPKPKDTLMISRTPEVTCVVVDVSQEDPEVQFNWYVDGVEVHNAKTKPREEQFNSTYRVVSVLTVLHQDWLNGKEYKCKVSNKGLPSSIEKTISKAKGQPREPQVYTLPPSQEEMTKNQVSLSCAVKGFYPSDIAVEWESNGQPENNYKTTPPVLDSDGSFFLVSRLTVDKSRWQEGNVFSCSVMHEALHNRFTQKSLSLSLGK
notes: hIgG4 knob-in-hole Fc heterodimer, one IL-2v on the knob chain
In the case of B1, the “STAT5 activation of CTLL-2 cells, EC50” value in experiment [1] worked out at 0.4 nM. The Kd turned out to be 56000 nM in experiment [2] and 0.064 nM in experiment [3].

B2: Fc-IL-2v heterodimer 99.46 (hIL-2v_Δ1-5_R38G_E61A_C125S) (Fc fusion)
chain 1: ESKYGPPCPPCPAPEAAGGPSVFLFPPKPKDTLMISRTPEVTCVVVDVSQEDPEVQFNWYVDGVEVHNAKTKPREEQFNSTYRVVSVLTVLHQDWLNGKEYKCKVSNKGLPSSIEKTISKAKGQPREPQVYTLPPSQEEMTKNQVSLWCLVKGFYPSDIAVEWESNGQPENNYKTTPPVLDSDGSFFLYSRLTVDKSRWQEGNVFSCSVMHEALHNHYTQKSLSLSLGGGGGSGGGGSGGGGSGGGGSSTKKTQLQLEHLLLDLQMILNGINNYKNPKLTGMLTFKFYMPKKATELKHLQCLEAELKPLEEVLNLAQSKNFHLRPRDLISNINVIVLELKGSETTFMCEYADETATIVEFLNRWITFSQSIISTLT
chain 2: ESKYGPPCPPCPAPEAAGGPSVFLFPPKPKDTLMISRTPEVTCVVVDVSQEDPEVQFNWYVDGVEVHNAKTKPREEQFNSTYRVVSVLTVLHQDWLNGKEYKCKVSNKGLPSSIEKTISKAKGQPREPQVYTLPPSQEEMTKNQVSLSCAVKGFYPSDIAVEWESNGQPENNYKTTPPVLDSDGSFFLVSRLTVDKSRWQEGNVFSCSVMHEALHNRFTQKSLSLSLGK
notes: as for B1
Take B2: the “STAT5 activation of CTLL-2 cells, EC50” value in experiment [1] came to 0.03 nM. Further, the Kd in experiment [2] is 39000 nM; in experiment [3], 0.065 nM.

B3: Fc-IL-2v heterodimer 105.46 (hIL-2v_Δ1-5_F42A_Y45A_L72G_C125S) (Fc fusion)
chain 1: ESKYGPPCPPCPAPEAAGGPSVFLFPPKPKDTLMISRTPEVTCVVVDVSQEDPEVQFNWYVDGVEVHNAKTKPREEQFNSTYRVVSVLTVLHQDWLNGKEYKCKVSNKGLPSSIEKTISKAKGQPREPQVYTLPPSQEEMTKNQVSLWCLVKGFYPSDIAVEWESNGQPENNYKTTPPVLDSDGSFFLYSRLTVDKSRWQEGNVFSCSVMHEALHNHYTQKSLSLSLGGGGGSGGGGSGGGGSGGGGSSTKKTQLQLEHLLLDLQMILNGINNYKNPKLTRMLTAKFAMPKKATELKHLQCLEEELKPLEEVLNGAQSKNFHLRPRDLISNINVIVLELKGSETTFMCEYADETATIVEFLNRWITFSQSIISTLT
chain 2: ESKYGPPCPPCPAPEAAGGPSVFLFPPKPKDTLMISRTPEVTCVVVDVSQEDPEVQFNWYVDGVEVHNAKTKPREEQFNSTYRVVSVLTVLHQDWLNGKEYKCKVSNKGLPSSIEKTISKAKGQPREPQVYTLPPSQEEMTKNQVSLSCAVKGFYPSDIAVEWESNGQPENNYKTTPPVLDSDGSFFLVSRLTVDKSRWQEGNVFSCSVMHEALHNRFTQKSLSLSLGK
notes: as for B1
Consider B3, for which, in experiment [1], the “STAT5 activation of CTLL-2 cells, EC50” value is 7.7 nM. Further, the figures for the Kd in experiment [2] and in experiment [3] were greater than 60000 nM and 0.063 nM, respectively.

B4: Fc-IL-2v heterodimer 98.46 (hIL-2v_Δ1-5_R38G_Y45G_C125S) (Fc fusion)
chain 1: ESKYGPPCPPCPAPEAAGGPSVFLFPPKPKDTLMISRTPEVTCVVVDVSQEDPEVQFNWYVDGVEVHNAKTKPREEQFNSTYRVVSVLTVLHQDWLNGKEYKCKVSNKGLPSSIEKTISKAKGQPREPQVYTLPPSQEEMTKNQVSLWCLVKGFYPSDIAVEWESNGQPENNYKTTPPVLDSDGSFFLYSRLTVDKSRWQEGNVFSCSVMHEALHNHYTQKSLSLSLGGGGGSGGGGSGGGGSGGGGSSTKKTQLQLEHLLLDLQMILNGINNYKNPKLTGMLTFKFGMPKKATELKHLQCLEEELKPLEEVLNLAQSKNFHLRPRDLISNINVIVLELKGSETTFMCEYADETATIVEFLNRWITFSQSIISTLT
chain 2: ESKYGPPCPPCPAPEAAGGPSVFLFPPKPKDTLMISRTPEVTCVVVDVSQEDPEVQFNWYVDGVEVHNAKTKPREEQFNSTYRVVSVLTVLHQDWLNGKEYKCKVSNKGLPSSIEKTISKAKGQPREPQVYTLPPSQEEMTKNQVSLSCAVKGFYPSDIAVEWESNGQPENNYKTTPPVLDSDGSFFLVSRLTVDKSRWQEGNVFSCSVMHEALHNRFTQKSLSLSLGK
notes: as for B1
For B4, in experiment [1], the “STAT5 activation of CTLL-2 cells, EC50” value worked out at 0.2 nM. Also, the Kd in experiment [2] is 59000 nM; in experiment [3] it was 0.056 nM.
